The text below walks through data of publication PMC4110032, “Crystal Structure of the Stress-Inducible Human Heat Shock Protein 70 Substrate-Binding Domain in Complex with Peptide Substrate” (PLoS ONE, 2014).

The target in the assay is T1, human HSP70 substrate-binding domain (residues 386–616) (human, UniProt P0DMV8 386-616).
T1 construct: Cloned into pET25 between NdeI and XhoI; The His6 tag was retained for crystallisation; A selenomethionine-derivatised form was used for phasing; also called HSP70-SBD; HSP70 SBD; source: E. coli BL21 Star (DE3), purified (Ni-NTA; size-exclusion chromatography when necessary); not shown: His6, N-terminal, kept
The assay can be described thus: crystal structure; co-crystallised by hanging drop vapour diffusion; 5 mM NRLLLTG mixed with 400 µM HSP70 (386–616), preheated to 42°C for 15 min and cooled to room temperature; 0.1 M Bis-Tris pH 5.5, 0.2 M Li2SO4, PEG3350; 2 Å, space group C2, two complexes per asymmetric unit. The settings on record: both partners purified.

T1 sequence (P0DMV8 386-616): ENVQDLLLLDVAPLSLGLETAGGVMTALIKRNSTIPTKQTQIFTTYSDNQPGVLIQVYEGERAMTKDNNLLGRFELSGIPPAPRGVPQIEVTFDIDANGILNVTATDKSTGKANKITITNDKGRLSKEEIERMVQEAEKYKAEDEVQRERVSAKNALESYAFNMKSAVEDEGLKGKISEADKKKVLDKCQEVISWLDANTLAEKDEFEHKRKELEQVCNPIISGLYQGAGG

B1: NRLLLTG peptide (peptide)
peptide: NRLLLTG
notes: hepta-peptide model substrate used in earlier DnaK structural analyses; Residues of the peptide are numbered 1-7 with the suffix p (Leu5p); also called hepta-peptide model substrate; NRLLLTG substrate peptide; source: bought: Biomatik
In the case of B1, the binding result is listed as “binds”.
